# In paper PMC7784741 (Protein Science : A Publication of the Protein Society, 2020):
# Target: YAP-binding domain of human TEAD4, TEAD4 217-434 (human, UniProt Q15561 217-434, biotin (N-biotinylated Avi tag))
# Assay: AlphaScreen or HTRF
# YAP-binding domain of human TEAD4, TEAD4 217-434, sequence (Q15561 217-434): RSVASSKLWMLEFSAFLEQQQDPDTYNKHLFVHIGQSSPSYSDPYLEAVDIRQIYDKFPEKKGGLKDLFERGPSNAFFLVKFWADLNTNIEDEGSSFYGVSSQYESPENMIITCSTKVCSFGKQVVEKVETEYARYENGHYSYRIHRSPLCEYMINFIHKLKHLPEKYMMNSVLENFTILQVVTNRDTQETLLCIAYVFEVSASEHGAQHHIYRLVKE
binder,measurement,value
DSETDLEALFNAVMNPKTANVPQTVPMRLRKLPDSFFKPPE [YAP 60-100 (partner of TEAD4 in the TR-FRET assay)],binding result,binds
